Measured values published in patent US20220242948A1 (CARTEXELL, published 2022).

What was measured:
[1] = target: T1, mouse L1CAM (mL1CAM) protein fused with the Fc domain (R&D system, Cat No.5674-NC) (mouse, UniProt P11627 20-1123, limits assumed); test: BLI, Octet system (Forte Bio QK384)
T1 construct: Bought protein; also called mL1CAM-Fc; antigen mL1CAM; not shown: Fc domain
Experimental: (§1) The clone 3R-H8 showing the highest binding affinity among four types of anti-L1CAM scFv was subjected to a conversion procedure, thereby securing the whole IgG1 antibody. Through the Octet system (Forte Bio, Model No. QK384) using the purified whole IgG1 antibody, the antigen-antibody affinity was analyzed for the antigen hL1CAM (Sino biological, Cat No.10140-H08H) protein or mL1CAM (R&D, Cat No. 5674-NC) protein.

[2] = target: T2, human L1CAM protein (hL1CAM, Sino biological, Cat No.10140-H08H) (human, UniProt P32004 20-1120); test: BLI, Octet system (Forte Bio QK384)
T2 construct: Bought protein used in the Octet assay; also called antigen hL1CAM
Experimental: as §1

[3] = target: T2, human L1CAM protein (hL1CAM, Sino …); test: Octet, AR2G sensor, 3R-H8 loaded as ligand at 5 ug/ml (10 mM acetate pH 5.0), hL1CAM as analyte 0 ~ 200 nM in 1X PBS + 0.09% Tween
Experimental: as §1

[4] = target: T1, mouse L1CAM (mL1CAM) protein fused with …; test: Octet, AR2G sensor, 3R-H8 loaded as ligand at 5 ug/ml (10 mM acetate pH 6.0), mL1CAM as analyte 0 ~ 100 nM in 1X PBS + 0.09% Tween
Experimental: as §1

[5] = target: T2, human L1CAM protein (hL1CAM, Sino …); test: Octet, AR2G sensor, 3R-H8 loaded as ligand at 5 ug/ml (10 mM acetate pH 5.0), hL1CAM as analyte 0 ~ 200 nM in 1X PBS + 0.09% Tween; column head kdis(1/s)
Experimental: as §1

[6] = target: T1, mouse L1CAM (mL1CAM) protein fused with …; test: Octet, AR2G sensor, 3R-H8 loaded as ligand at 5 ug/ml (10 mM acetate pH 6.0), mL1CAM as analyte 0 ~ 100 nM in 1X PBS + 0.09% Tween; column head kdis(1/s)
Experimental: as §1

[7] = target: T1, mouse L1CAM (mL1CAM) protein fused with …; test: monoclonal phage ELISA, plate coated with mL1CAM-Fc (3R clones), HRP-anti-M13, absorbance at 450 nm, cut-off 0.4
Experimental: Specifically, the antigen mL1CAM protein was added to 96-well plates, incubated at 4° C. overnight, and then blocked with 2% MPBS at 37° C. for 2 hours. Since the antigen mL1CAM protein was fused with the Fc domain, Fc as an Fc control was also added to the 96-well plates, incubated at 4° C. overnight, and blocked with 2% MPBS at 37° C. for 2 hours. Then, the phages (up to 10¹¹ cfu) were added to the 96-well plates. After incubation at room temperature for 90 minutes, HRP-anti-M13 (Sino Biological, Cat No. 11973-MM05) was diluted in PBS to 1:5000, and added to 96-well plates. After incubation at room temperature for 1 hour, TMB substrate (Sigma, Cat No. T0440) and 2N H2504 (Merck, Cat No.100731) were sequentially added, and the absorbance (OD) at 450 nm was measured. As a result, when the absorbance (A450 nm) cut-off for the antigen mL1CAM was set to at least 0.4 for selection, one clone in the 2nd round, a total of 26 clones in the 3rd round, and a total of 9 clones in the 4th round specifically bound (positive) to the antigen mL1CAM in ELISA (FIG. 3).

T1 sequence (P11627 20-1123 limits assumed): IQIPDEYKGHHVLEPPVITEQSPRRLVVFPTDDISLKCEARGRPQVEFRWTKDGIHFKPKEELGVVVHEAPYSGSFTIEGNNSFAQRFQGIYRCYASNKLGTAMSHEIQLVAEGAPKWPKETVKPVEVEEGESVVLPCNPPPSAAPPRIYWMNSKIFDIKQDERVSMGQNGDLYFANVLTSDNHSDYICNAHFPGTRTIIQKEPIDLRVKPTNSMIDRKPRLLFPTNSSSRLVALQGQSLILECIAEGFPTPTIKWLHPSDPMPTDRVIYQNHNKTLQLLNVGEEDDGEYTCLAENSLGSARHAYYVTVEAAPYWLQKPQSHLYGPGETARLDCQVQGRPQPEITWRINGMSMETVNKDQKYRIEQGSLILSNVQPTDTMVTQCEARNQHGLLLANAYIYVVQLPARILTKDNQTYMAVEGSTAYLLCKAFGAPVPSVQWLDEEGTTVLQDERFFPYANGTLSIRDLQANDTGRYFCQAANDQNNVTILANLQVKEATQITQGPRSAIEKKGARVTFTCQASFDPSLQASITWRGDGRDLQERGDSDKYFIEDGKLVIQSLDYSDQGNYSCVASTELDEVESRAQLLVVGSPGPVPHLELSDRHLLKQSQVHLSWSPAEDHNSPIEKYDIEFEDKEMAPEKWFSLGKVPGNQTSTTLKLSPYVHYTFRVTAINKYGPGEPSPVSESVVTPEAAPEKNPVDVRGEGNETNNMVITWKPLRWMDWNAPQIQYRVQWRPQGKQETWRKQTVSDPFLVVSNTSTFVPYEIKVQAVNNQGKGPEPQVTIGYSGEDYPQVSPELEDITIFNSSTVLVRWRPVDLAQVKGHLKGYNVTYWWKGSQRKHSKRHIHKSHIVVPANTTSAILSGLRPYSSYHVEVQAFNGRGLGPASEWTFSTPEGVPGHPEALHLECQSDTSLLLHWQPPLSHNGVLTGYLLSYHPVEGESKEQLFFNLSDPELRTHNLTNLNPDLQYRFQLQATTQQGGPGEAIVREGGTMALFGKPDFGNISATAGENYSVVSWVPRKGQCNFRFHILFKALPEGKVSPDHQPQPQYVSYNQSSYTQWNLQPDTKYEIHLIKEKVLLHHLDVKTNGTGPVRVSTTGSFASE
T2 sequence (P32004 20-1120 limits assumed): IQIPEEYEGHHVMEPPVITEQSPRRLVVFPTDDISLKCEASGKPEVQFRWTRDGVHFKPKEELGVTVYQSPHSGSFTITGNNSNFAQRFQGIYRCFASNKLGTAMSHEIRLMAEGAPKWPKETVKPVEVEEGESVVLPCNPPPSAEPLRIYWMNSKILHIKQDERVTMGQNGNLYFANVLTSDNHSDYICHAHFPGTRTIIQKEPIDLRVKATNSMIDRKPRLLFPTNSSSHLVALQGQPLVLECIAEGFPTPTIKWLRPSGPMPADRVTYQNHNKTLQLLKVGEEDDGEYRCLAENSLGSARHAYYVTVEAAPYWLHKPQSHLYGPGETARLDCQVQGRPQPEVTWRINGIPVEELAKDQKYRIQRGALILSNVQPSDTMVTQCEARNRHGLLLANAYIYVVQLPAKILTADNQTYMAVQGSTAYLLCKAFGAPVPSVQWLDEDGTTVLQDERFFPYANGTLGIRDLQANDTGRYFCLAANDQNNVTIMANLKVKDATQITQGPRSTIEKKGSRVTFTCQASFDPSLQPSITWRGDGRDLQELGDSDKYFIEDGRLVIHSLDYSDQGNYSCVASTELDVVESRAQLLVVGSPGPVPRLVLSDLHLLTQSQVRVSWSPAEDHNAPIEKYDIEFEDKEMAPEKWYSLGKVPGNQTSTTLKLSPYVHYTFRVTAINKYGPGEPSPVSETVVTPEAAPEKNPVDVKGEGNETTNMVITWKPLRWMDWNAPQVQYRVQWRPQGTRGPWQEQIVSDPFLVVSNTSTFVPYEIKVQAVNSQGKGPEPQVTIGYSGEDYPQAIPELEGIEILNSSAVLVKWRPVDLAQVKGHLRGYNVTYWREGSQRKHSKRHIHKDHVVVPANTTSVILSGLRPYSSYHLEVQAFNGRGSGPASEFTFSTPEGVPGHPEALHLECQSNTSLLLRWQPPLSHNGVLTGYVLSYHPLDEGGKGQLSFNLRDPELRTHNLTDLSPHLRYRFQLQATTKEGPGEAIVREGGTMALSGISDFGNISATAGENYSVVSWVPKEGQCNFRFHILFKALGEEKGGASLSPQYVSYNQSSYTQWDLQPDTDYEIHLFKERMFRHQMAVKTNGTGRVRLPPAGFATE

Binder	Kd [1]	Kd [2]	kon [3]	kon [4]	koff [5]	koff [6]	binding result [7]
whole IgG1 antibody converted from clone 3R-H8 (antibody, V domains shown, also called 3R-H8 whole IgG1; mL1CAM-3R-H8 IgG1) VH: EVQLVESGGGLVQPGGSLRLSCAASGFTFSDYAMNWVRQAPGKGLEWVSAISSTGSTIYYADSVKGRFTISRDNSKNTLYLQMNSLRAEDTAVYYCAKQSTYFYSYFDVWGQGTLVTVSS VL: not shown	20.5 nM	4.14 nM	57700 M⁻¹ s⁻¹	462000 M⁻¹ s⁻¹	0.000239 s⁻¹	0.00945 s⁻¹	–
E7 (scFv, also called mL1CAM-3R-E7; ID 4 group) scFv (VH-linker-VL): EVQLVESGGGLVQPGGSLRLSCAASGFTFSSYAMHWVRQAPGKGLEWVSAISSSGSSKYYADSVKGRFTISRDNSKNTLYLQINSLRAEDTAVYYCAKDESYGWLYAFDLWGQGTLVTVSSGGGGSGGGGSGGGGSDIQMTQSPSSLSASVGDRVTITCRASQSISNYLNWYQQKPGKAPKLLIYAASRLQSGVPSRFSGSGSGTDFTLTISSLQPEDFATYYCQQSYSFPLTFGQGTKVEIK	–	–	–	–	–	–	binds
G2 (scFv, also called mL1CAM-3R-G2; ID 4 group) scFv (VH-linker-VL): EVQLVESGGGLVQPGGSLRLSCAASGFTFSSYAMHWVRQAPGKGLEWVSAISSSGSSKYYADSVKGRFTISRDNSKNTLYLQINSLRAEDTAVYYCAKDESYGWLYAFDLWGQGTLVTVSSGGGGSGGGGSGGGGSDIQMTQSPSSLSASVGDRVTITCRASQSISNYLNWYQQKPGKAPKLLIYAASRLQSGVPSRFSGSGSGTDFTLTISSLQPEDFATYYCQQSYSFPLTFGQGTKVEIK	–	–	–	–	–	–	binds
